Measured values reported in patent US20220175781A1, “CD40L COMPOSITIONS AND METHODS FOR TUNABLE REGULATION” (Obsidian Therapeutics, Inc., priority 2019, published 2022).
“And” between values parts separate entries of the source, which are not always exact repeats. Equal values may be shown once.

Key:
Jurkat cells [1] = assay: CD40L shedding ELISA of supernatant, Jurkat cells with or without CD40-Fc receptor; type: cell-based; parameters: CD40L levels in supernatant: unit not given here; conditions: 6 hours
Procedure: Sheddases e.g. ADAM10/17 present in the tumor microenvironment can cleave CD40L thereby preventing the successful activation of CD40 by CD40L. […] OT-001669 which has a deletion of amino acids 1-13 of CD40L was designed to reduce internalization and OT-001668 which has a deletion of amino acids 110-116 of CD40L was designed to remove the ADAM10/17 sites. Jurkat cells stably expressing the full length construct OT-001661, OT-001669, or OT-001668 were cultured for 6 hours with 1.25 μg/ml recombinant human (h) or mouse (m) CD40-Fc receptor or left untreated and tested using an ELISA assay (Table 15).

T cells (CD4+ and CD8+) = assay: Co-expression of CD40L and CD19 CAR on transduced T cells; type: cell-based
Text: The results for CD4+ and CD8+ cells and total cells are shown below.

Nalm6-luc = Nalm6-luc tumor model, Bioluminescence Intensity (BLI); type: in vivo, mice; conditions: CD40L only T cells, no CAR+ number
Procedure: (§1) Increased expression of CD40L on CD19 positive CART cells may increase the efficacy of CAR+ T cells in vivo. To test this, 8-week old mice were injected with Nalm6-luc (1 million per mouse). On day 6, Nalm6 tumor burden was measured and mice were grouped to ensure that all groups had similar tumor sizes. Body weight and Bioluminescence Intensity (BLI) were measured twice a week. Blood and plasma were also collected for cytokine analysis, CD40L and IL12.

hCD45+ cells = hCD45+ cells in blood by FACS 14 days after T-cell infusion; type: in vivo, mice; conditions: cell number not given
Procedure: as §1
Human cells were analyzed by FACS (hCD45+) from the blood 14 days after T-cell infusion, which equals 21 days after tumor implant. The results are shown in Table 22 where M indicates million.

HEK293T cells = assay: Surface expression of CD40L trimerization mutants, transfected HEK293T cells (FACS); type: cell-based, human; conditions: transiently transfected HEK293T cells
Procedure: Mutations were engineered within CD40L payload to reduce the binding affinity of CD40L payload for the CD40L endogenously expressed by cells. Constructs OT-002078, OT-002079, OT-002080, OT-002081, OT-002082 were generated with the CD40L trimerization mutants. HEK293T cells were transiently transfected with the constructs and CD40L expression was measured by FACS.

Jurkat cells [2] = assay: In vivo CD40L regulation in Jurkat cells harvested from bone marrow of NSG mice; conditions: constitutive construct, Jurkat cells from bone marrow, day 16
Text: Jurkat cells stably expressing OT-001661, OT-002034 were intravenously infused into 8-week old NSG mice (20 million cells per mouse). Starting by day 15, mice were orally dosed according to the study design shown in Table 42 and Jurkat cells were harvested on day 16 from the bone marrow and analyzed by FACS. In Tables 41 and 42, TMP refers to Trimethoprim and all dosing is relative to “0 hr” time point on day 16. The results are shown in Table 43 and Table 44 where “EV” refers to empty vector control.

Jurkat cells [3] = assay: DHFR regulated CD40L expression, transduced Jurkat cells (flow cytometry); type: cell-based
Procedure: Jurkat cells were transduced with lentiviruses corresponding to OT-001662, OT-001962, OT-001961, OT-001963. 24 hours after transduction, cells were split and treated with DMSO or 50 μM TMP for another 24 hours until flow cytometry-based analysis. The results are shown in Table 37 where SR indicates stabilization ration.

CD40 = CD40 (UniProt P25942); assay: cell-based or functional assay
Jurkat cells [4] = assay: Linker length, ER regulated CD40L, % CD40L positive Jurkat cells; type: cell-based
Procedure: Jurkat cells were lentivirally transduced and 24 hours after transduction were treated with DMSO or 1 μM Bazedoxifene for another 24 hours and analyzed by flow cytometry for surface expression of CD40L. […] In Table 33, SR indicates stabilization ratio.

[5] = tested on: T cells (CD4 and CD8 positive); assay: Bazedoxifene dose response, CD40L MFI in CD4 and CD8 positive T cells (day 4, freeze/thaw, restimulation); type: cell-based
Procedure: Dose response with Bazedoxifene in T cells were conducted for OT-001966, OT-001967, OT-001666. Expression of CD40L was measured at (a) day 4 after transduction, (b) after freezing and thawing the cells or (c) after freezing and thawing the cells followed by restimulation with CD3/CD28 beads. The CD40L MFI (median fluorescence intensity) within CD4 and CD8 positive subpopulations is shown in Table 34 and Table 35 respectively.

CD40, sequence (P25942 21-277 limits assumed): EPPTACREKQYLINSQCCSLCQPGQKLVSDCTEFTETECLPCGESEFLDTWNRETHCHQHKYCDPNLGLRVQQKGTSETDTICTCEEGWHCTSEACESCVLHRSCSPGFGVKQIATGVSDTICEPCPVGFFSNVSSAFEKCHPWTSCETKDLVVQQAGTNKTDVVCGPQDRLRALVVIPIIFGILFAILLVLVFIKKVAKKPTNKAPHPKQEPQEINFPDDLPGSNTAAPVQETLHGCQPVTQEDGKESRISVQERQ

B1: OT-001661: constitutively expressed full length CD40L construct (protein)
chain: MHMIETYNQTSPRSAATGLPISMKIFMYLLTVFLITQMIGSALFAVYLHRRLDKIEDERNLHEDFVFMKTIQRCNTGERSLSLLNCEEIKSQFEGFVKDIMLNKEETKKENSFEMQKGDQNPQIAAHVISEASSKTTSVLQWAEKGYYTMSNNLVTLENGKQLTVKRQGLYYIYAQVTFCSNREASSQAPFIASLCLKSPGRFERILLRAANTHSSAKPCGQQSIHLGGVFELQPGASVFVNVTDPSQVSHGTGFTSFGLLKL
CD40L levels in supernatant (Jurkat cells [1]; 1.25 μg/ml hCD40-Fc): 3599.72
CD40L levels in supernatant (Jurkat cells [1]; 1.25 μg/ml mCD40-Fc): 2589.21
CD40L levels in supernatant (Jurkat cells [1]; Untreated): 1382.06
Percent of Cells co-expressing CD40L and CD19 CAR (T cells (CD4+ and CD8+); All Cells): 0%
Percent of Cells co-expressing CD40L and CD19 CAR (T cells (CD4+ and CD8+); CD4+): 0%
Percent of Cells co-expressing CD40L and CD19 CAR (T cells (CD4+ and CD8+); CD8+): 0%
Average BLI values (Nalm6-luc; Day 6 (before T cell injection on day 7)): 2.04E+06
Average BLI values (Nalm6-luc; Day 13): 2.69E+08
Average BLI values (Nalm6-luc; Day 20): 2.52E+09
Average BLI values (Nalm6-luc; Day 25): 5.99E+09
Average BLI values (Nalm6-luc; Day 28): 1.04E+10
Percentage hCD45+ cells, Average (hCD45+ cells): 0.002%
Percentage hCD45+ cells, Individual values (hCD45+ cells): 0.00249% and 0.00331% and 0.00198% and 0%
% CD40L positive (HEK293T cells): 43.3%
CD40L MFI values (Jurkat cells [2]; Average): 586.5
Percent CD40L positive cells (Jurkat cells [2]; Average): 58.9%
CD40L MFI values (Jurkat cells [2]; individual mice): 507 and 572 and 660 and 607
Percent CD40L positive cells (Jurkat cells [2]; individual mice): 52.5% and 57.5% and 64.2% and 61.4%

B2: OT-001662: CD40L construct with ecDHFR (M1del, R12Y, Y100I) DRD, ligand TMP (protein)
chain: MSGISLIAALAVDYVIGMENAMPWNLPADLAWFKRNTLNKPVIMGRHTWESIGRPLPGRKNIILSSQPGTDDRVTWVKSVDEAIAACGDVPEIMVIGGGRVIEQFLPKAQKLYLTHIDAEVEGDTHFPDYEPDDWESVFSEFHDADAQNSHSYCFEILERRHMIETYNQTSPRSAATGLPISMKIFMYLLTVFLITQMIGSALFAVYLHRRLDKIEDERNLHEDFVFMKTIQRCNTGERSLSLLNCEEIKSQFEGFVKDIMLNKEETKKENSFEMQKGDQNPQIAAHVISEASSKTTSVLQWAEKGYYTMSNNLVTLENGKQLTVKRQGLYYIYAQVTFCSNREASSQAPFIASLCLKSPGRFERILLRAANTHSSAKPCGQQSIHLGGVFELQPGASVFVNVTDPSQVSHGTGFTSFGLLKL
% CD40L expression (Jurkat cells [3]; TMP (50 μM)): 90%
SR (Jurkat cells [3]; TMP (50 μM) versus Vehicle): 90
% CD40L expression (Jurkat cells [3]; Vehicle (DMSO)): 1%

B3: OT-001666 (Met; ER (305-549 of WT, L384M, N413D, M421G, G521R, Y537S); Histidine; CD40L; stop) (ligand)
chain: MSLALSLTADQMVSALLDAEPPILYSEYDPTRPFSEASMMGLLTNLADRELVHMINWAKRVPGFVDLTLHDQVHLLECAWMEILMIGLVWRSMEHPGKLLFAPNLLLDRDQGKCVEGGVEIFDMLLATSSRFRMMNLQGEEFVCLKSIILLNSGVYTFLSSTLKSLEEKDHIHRVLDKITDTLIHLMAKAGLTLQQQHQRLAQLLLILSHIRHMSNKRMEHLYSMKCKNVVPLSDLLLEMLDAHRLHMIETYNQTSPRSAATGLPISMKIFMYLLTVFLITQMIGSALFAVYLHRRLDKIEDERNLHEDFVFMKTIQRCNTGERSLSLLNCEEIKSQFEGFVKDIMLNKEETKKENSFEMQKGDQNPQIAAHVISEASSKTTSVLQWAEKGYYTMSNNLVTLENGKQLTVKRQGLYYIYAQVTFCSNREASSQAPFIASLCLKSPGRFERILLRAANTHSSAKPCGQQSIHLGGVFELQPGASVFVNVTDPSQVSHGTGFTSFGLLKL
SEAP reporter of HEK-Blue CD40 cells co-cultured 24 hours with transduced Jurkat cells plus 1 µM Bazedoxifene, given as Soluble CD40L (pg/ml) against a recombinant soluble CD40L standard (CD40): 1820 pg/mL
Percent of Jurkat cells expressing CD40L (Jurkat cells [4]; 1 μM Bazedoxifene): 30%
SR (Jurkat cells [4]; 1 μM Bazedoxifene versus DMSO, % CD40L positive Jurkat cells): 3
Percent of Jurkat cells expressing CD40L (Jurkat cells [4]; DMSO): 10%
CD40L expression (MFI) ([5]; CD4+ cells, Day 4, Bazedoxifene 0.01 nM): 372
CD40L expression (MFI) ([5]; CD4+ cells, Day 4, Bazedoxifene 0.1 nM): 420
CD40L expression (MFI) ([5]; CD4+ cells, Day 4, Bazedoxifene 1 nM): 427
CD40L expression (MFI) ([5]; CD4+ cells, Day 4, Bazedoxifene 10 nM): 476
CD40L expression (MFI) ([5]; CD4+ cells, Day 4, Bazedoxifene 100 nM): 732
CD40L expression (MFI) ([5]; CD4+ cells, Day 4, Bazedoxifene 1000 nM): 1397
CD40L expression (MFI) ([5]; CD4+ cells, Day 4, Bazedoxifene 10000 nM): 1274
CD40L expression (MFI) ([5]; CD4+ cells, Post Thaw, Bazedoxifene 0.01 nM): 134
CD40L expression (MFI) ([5]; CD4+ cells, Post Thaw, Bazedoxifene 0.1 nM): 138
CD40L expression (MFI) ([5]; CD4+ cells, Post Thaw, Bazedoxifene 1 nM): 145
CD40L expression (MFI) ([5]; CD4+ cells, Post Thaw, Bazedoxifene 10 nM): 162
CD40L expression (MFI) ([5]; CD4+ cells, Post Thaw, Bazedoxifene 100 nM): 208
CD40L expression (MFI) ([5]; CD4+ cells, Post Thaw, Bazedoxifene 1000 nM): 241
CD40L expression (MFI) ([5]; CD4+ cells, Post Thaw, Bazedoxifene 10000 nM): 537
CD40L expression (MFI) ([5]; CD4+ cells, Restim, Bazedoxifene 0.01 nM): 592
CD40L expression (MFI) ([5]; CD4+ cells, Restim, Bazedoxifene 0.1 nM): 658
CD40L expression (MFI) ([5]; CD4+ cells, Restim, Bazedoxifene 1 nM): 682
CD40L expression (MFI) ([5]; CD4+ cells, Restim, Bazedoxifene 10 nM): 658
CD40L expression (MFI) ([5]; CD4+ cells, Restim, Bazedoxifene 100 nM): 953
CD40L expression (MFI) ([5]; CD4+ cells, Restim, Bazedoxifene 1000 nM): 1688
CD40L expression (MFI) ([5]; CD4+ cells, Restim, Bazedoxifene 10000 nM): 1577
CD40L expression (MFI) ([5]; CD8+ cells, Day 4, Bazedoxifene 0.01 nM): 165
CD40L expression (MFI) ([5]; CD8+ cells, Day 4, Bazedoxifene 0.1 nM): 171
CD40L expression (MFI) ([5]; CD8+ cells, Day 4, Bazedoxifene 1 nM): 172
CD40L expression (MFI) ([5]; CD8+ cells, Day 4, Bazedoxifene 10 nM): 176
CD40L expression (MFI) ([5]; CD8+ cells, Day 4, Bazedoxifene 100 nM): 313
CD40L expression (MFI) ([5]; CD8+ cells, Day 4, Bazedoxifene 1000 nM): 601
CD40L expression (MFI) ([5]; CD8+ cells, Day 4, Bazedoxifene 10000 nM): 404
CD40L expression (MFI) ([5]; CD8+ cells, Post Thaw, Bazedoxifene 0.01 nM): 103
CD40L expression (MFI) ([5]; CD8+ cells, Post Thaw, Bazedoxifene 0.1 nM): 105
CD40L expression (MFI) ([5]; CD8+ cells, Post Thaw, Bazedoxifene 1 nM): 107
CD40L expression (MFI) ([5]; CD8+ cells, Post Thaw, Bazedoxifene 10 nM): 117
CD40L expression (MFI) ([5]; CD8+ cells, Post Thaw, Bazedoxifene 100 nM): 170
CD40L expression (MFI) ([5]; CD8+ cells, Post Thaw, Bazedoxifene 1000 nM): 213
CD40L expression (MFI) ([5]; CD8+ cells, Post Thaw, Bazedoxifene 10000 nM): 326
CD40L expression (MFI) ([5]; CD8+ cells, Restim, Bazedoxifene 0.01 nM): 238
CD40L expression (MFI) ([5]; CD8+ cells, Restim, Bazedoxifene 0.1 nM): 244
CD40L expression (MFI) ([5]; CD8+ cells, Restim, Bazedoxifene 1 nM): 263
CD40L expression (MFI) ([5]; CD8+ cells, Restim, Bazedoxifene 10 nM): 253
CD40L expression (MFI) ([5]; CD8+ cells, Restim, Bazedoxifene 100 nM): 354
CD40L expression (MFI) ([5]; CD8+ cells, Restim, Bazedoxifene 1000 nM): 567
CD40L expression (MFI) ([5]; CD8+ cells, Restim, Bazedoxifene 10000 nM): 458
